Measurements: article PMC2729916 (Nature, 2009)
One block for each binder: values may come before it.

What was measured:
Assay in all cases: far-Western, overlay or dot blot
FLAG-UvrA (E. coli) = biological target: T1, FLAG-UvrA (E. coli) (E. coli, UniProt P0A698 1-940)
T1 sequence (looked up): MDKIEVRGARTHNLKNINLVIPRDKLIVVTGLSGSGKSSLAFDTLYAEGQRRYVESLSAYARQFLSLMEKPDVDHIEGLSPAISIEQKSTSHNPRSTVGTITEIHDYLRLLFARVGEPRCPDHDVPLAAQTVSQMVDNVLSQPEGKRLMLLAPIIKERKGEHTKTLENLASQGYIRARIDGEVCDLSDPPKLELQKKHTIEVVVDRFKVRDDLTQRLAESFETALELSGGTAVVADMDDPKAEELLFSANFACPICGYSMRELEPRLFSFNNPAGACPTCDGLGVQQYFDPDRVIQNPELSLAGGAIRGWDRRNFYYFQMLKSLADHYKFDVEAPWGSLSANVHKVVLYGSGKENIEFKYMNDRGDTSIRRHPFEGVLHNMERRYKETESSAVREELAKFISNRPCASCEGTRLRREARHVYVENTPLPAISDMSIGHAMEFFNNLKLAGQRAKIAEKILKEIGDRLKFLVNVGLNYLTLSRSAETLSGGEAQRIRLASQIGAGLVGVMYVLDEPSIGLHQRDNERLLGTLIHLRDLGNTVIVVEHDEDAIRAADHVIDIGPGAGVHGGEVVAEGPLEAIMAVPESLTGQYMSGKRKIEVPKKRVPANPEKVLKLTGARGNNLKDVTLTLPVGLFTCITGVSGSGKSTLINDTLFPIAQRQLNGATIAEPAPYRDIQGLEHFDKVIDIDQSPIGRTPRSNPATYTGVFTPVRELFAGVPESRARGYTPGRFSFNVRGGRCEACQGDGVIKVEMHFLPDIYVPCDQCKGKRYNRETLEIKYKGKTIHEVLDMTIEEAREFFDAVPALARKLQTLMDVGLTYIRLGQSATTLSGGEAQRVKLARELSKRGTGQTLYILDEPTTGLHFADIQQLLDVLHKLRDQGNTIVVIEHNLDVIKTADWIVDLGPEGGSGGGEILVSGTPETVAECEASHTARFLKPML

E. coli UvrA = biological target: T2, E. coli UvrA (E. coli, UniProt P0A698 1-940)
T2 sequence (looked up): T1 sequence (looked up)

E. coli UvrC = biological target: T3, E. coli UvrC (E. coli, UniProt P0A8G0 1-610)
T3 sequence (looked up): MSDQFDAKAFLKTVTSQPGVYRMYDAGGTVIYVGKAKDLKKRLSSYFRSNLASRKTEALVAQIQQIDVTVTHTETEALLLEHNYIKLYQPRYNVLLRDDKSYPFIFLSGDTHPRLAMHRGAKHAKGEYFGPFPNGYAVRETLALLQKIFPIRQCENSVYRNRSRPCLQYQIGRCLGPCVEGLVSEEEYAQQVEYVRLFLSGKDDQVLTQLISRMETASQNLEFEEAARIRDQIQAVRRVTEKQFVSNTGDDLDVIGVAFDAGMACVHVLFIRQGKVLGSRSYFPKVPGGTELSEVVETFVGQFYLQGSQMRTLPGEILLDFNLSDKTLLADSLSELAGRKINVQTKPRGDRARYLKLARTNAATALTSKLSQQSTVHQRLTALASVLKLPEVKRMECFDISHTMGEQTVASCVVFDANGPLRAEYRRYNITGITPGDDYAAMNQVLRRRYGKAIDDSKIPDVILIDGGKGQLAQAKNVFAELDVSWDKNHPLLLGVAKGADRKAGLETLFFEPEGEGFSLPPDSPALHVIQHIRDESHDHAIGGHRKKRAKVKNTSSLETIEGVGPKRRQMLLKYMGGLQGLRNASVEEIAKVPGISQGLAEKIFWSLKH

binding result (FLAG-UvrA (E. coli)): binds
B1: S. pombe Atl1 (alkyltransferase-like protein 1) (natural protein)
chain: MRMDEFYTKVYDAVCEIPYGKVSTYGEIARYVGMPSYARQVGQAMKHLHPETHVPWHRVINSRGTISKRDISAGEQRQKDRLEEEGVEIYQTSLGEYKLNLPEYMWKP

binding result (E. coli UvrA): binds
binding result (E. coli UvrC): binds
B2: FLAG-eAtl (E. coli alkyltransferase-like protein) (natural protein, UniProt P0AFP2 1-129, looked up)
chain: MLVSCAMRLHSGVFPDYAEKLPQEEKMEKEDSFPQRVWQIVAAIPEGYVTTYGDVAKLAGSPRAARQVGGVLKRLPEGSTLPWHRVVNRHGTISLTGPDLQRQRQALLAEGVMVSGSGQIDLQRYRWNY
